In test [1] the target is T1, human EphA4 (Homo sapiens, UniProt P54764).
T1 construct: made in house; not restated for the human SEAP-His protein
Put plainly: Affinity of humanized antibodies by SPR (Biacore T200). Type of test: binding. The note with it: human EphA4 extracellular region-SEAP-His; for ka / kd: 1:1 binding model; for Kd: KD=kd/ka. The essentials: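 Humanized antibodies captured on protein A chip (antibody A via immobilized rat anti-mouse IgG1) at about 30 to 60 RU in HBS-EP; human EphA4 extracellular region-SEAP-His injected single-cycle at 0.6 to 50 nM, 120 s association, 900 s dissociation. KD = kd/ka from 1:1 binding fits.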

Test [2] deals with T2, human EphA4 (binding to human Ephrin A5) (Homo sapiens, UniProt P54764).
T2 construct: made in house; not restated for the human SEAP-His protein
T2 sequence (P54764 20-547): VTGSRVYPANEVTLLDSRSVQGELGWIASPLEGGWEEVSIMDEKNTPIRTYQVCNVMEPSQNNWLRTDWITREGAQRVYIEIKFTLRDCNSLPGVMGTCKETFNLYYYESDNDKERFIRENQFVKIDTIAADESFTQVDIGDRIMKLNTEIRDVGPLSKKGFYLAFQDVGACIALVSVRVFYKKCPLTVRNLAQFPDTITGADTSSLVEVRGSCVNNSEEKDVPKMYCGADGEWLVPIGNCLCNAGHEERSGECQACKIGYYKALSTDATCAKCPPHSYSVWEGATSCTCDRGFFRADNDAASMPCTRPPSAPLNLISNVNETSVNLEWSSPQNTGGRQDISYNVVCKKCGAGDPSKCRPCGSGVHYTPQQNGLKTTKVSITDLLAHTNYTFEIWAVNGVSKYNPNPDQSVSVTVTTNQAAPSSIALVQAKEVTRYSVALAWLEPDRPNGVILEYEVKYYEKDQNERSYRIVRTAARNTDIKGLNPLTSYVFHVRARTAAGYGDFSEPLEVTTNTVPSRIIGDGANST
The experiment in a line: Human EphA4-human ligand binding inhibition ELISA of humanized antibodies (biotinylated Ephrin A5-Fc). To be noted: biotinylated human Ephrin A5-Fc 0.7 nM. In a few lines: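 Wells coated with anti-alkaline phosphatase antibody captured human EphA4 extracellular region-SEAP-His at 10 nM. Biotinylated human Ephrin A5-Fc (0.7 nM) and serially diluted humanized antibody (0-3000 nM) were added together for 1 h at room temperature. Bound ligand was detected with HRP-streptavidin and TMBZ at A450.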

T1 sequence (P54764 20-547): as above

B1: 76 (antibody, V domains shown)
VH: QVQLVQSGSELKKPGASVKVSCKASGYTFTDYSMHWVRQAPGQGLKWMGWINTETGEPTYAQGFTGRFVFSLDTSVSTAYLQISSLKAEDTAVYYCARIPLYYYGSRYWYFDVWGQGTTVTVSS
VL: DIQMTQSPSSLSASVGDRVTITCRASENIYRNLAWYQQKPGKAPKLLVYAATNLADGVPSRFSGSGSGTDYTLTISSLQPEDFATYYCQHFWGTPWTFGQGTKVEIK
modifications: synthetic humanized antibody heavy chain variable region sequence; synthetic humanized antibody light chain variable region sequence
In test [1], B1 gave a ka of 330000 M⁻¹ s⁻¹, a kd of 0.00034 s⁻¹ and a Kd of 1 nM. In test [2], this molecule had an IC50 of 2.9 nM.

B2: 67 (antibody, V domains shown)
VH: QIQLVQSGSELKKPGASVKVSCKASGYTFTDYSMHWVRQAPGQGLKWMGWINTETGEPTYAQGFTGRFVFSLDTSVSTAYLQISSLKAEDTAVYYCARIPLYYYGSRYWYFDVWGQGTTVTVSS
VL: DIQMTQSPSSLSASVGDRVTITCRASENIYRNLAWYQQKPGKAPKLLVYAATNLADGVPSRFSGSGSGTDYTLTISSLQPEDFATYYCQHFWGTPWTFGQGTKVEIK
modifications: synthetic humanized antibody heavy chain variable region sequence; synthetic humanized antibody light chain variable region sequence
In test [1], B2 returned a ka of 330000 M⁻¹ s⁻¹, a kd of 0.00035 s⁻¹ and a Kd of 1.1 nM. This molecule yielded an IC50 in test [2] of 4.4 nM.

B3: 78 (antibody, V domains shown)
VH: QVQLVQSGSELKKPGASVKVSCKASGYTFTDYSMHWVRQAPGQGLKWMGWINTETGEPTYADDFKGRFVFSLDTSVSTAYLQISSLKAEDTAVYYCARIPLYYYGSRYWYFDVWGQGTTVTVSS
VL: DIQMTQSPSSLSASVGDRVTITCRASENIYRNLAWYQQKPGKAPKLLVYAATNLADGVPSRFSGSGSGTDYTLTISSLQPEDFATYYCQHFWGTPWTFGQGTKVEIK
modifications: synthetic humanized antibody heavy chain variable region sequence; synthetic humanized antibody light chain variable region sequence
In the case of B3, in test [1], the ka was determined as 340000 M⁻¹ s⁻¹, the kd came to 0.00039 s⁻¹ and the Kd stood at 1.1 nM. The molecule further yielded an IC50 in test [2] of 2.8 nM.

B4: 77 (antibody, V domains shown)
VH: QVQLVQSGSELKKPGASVKVSCKASGYTFTDYSMHWVRQAPGQGLEWMGWINTETGEPTYADDFKGRFVFSLDTSVSTAYLQISSLKAEDTAVYYCARIPLYYYGSRYWYFDVWGQGTTVTVSS
VL: DIQMTQSPSSLSASVGDRVTITCRASENIYRNLAWYQQKPGKAPKLLVYAATNLADGVPSRFSGSGSGTDYTLTISSLQPEDFATYYCQHFWGTPWTFGQGTKVEIK
modifications: synthetic humanized antibody heavy chain variable region sequence; synthetic humanized antibody light chain variable region sequence
In test [1], B4 came in with a ka of 410000 M⁻¹ s⁻¹, a kd of 0.00058 s⁻¹ and a Kd of 1.4 nM. In test [2], this molecule registered an IC50 of 3.5 nM.
